The values that follow come from article PMC3048587 (Biochemistry, 2011).

For the assay, the target named is Rac W56F mutant (UniProt P63000 1-192, W56F). Put plainly: cell-based or functional assay.

A value given as a limit tells only on which side of the number the result lay.

B1: Dock180^DHR-2c (C-terminus of DHR-2 in Dock180, residues 1335-1657) (domain or fragment)
chain: KPDYFAVGYYGQGFPTFLRGKVFIYRGKEYERREDFEARLLTQFPNAEKMKTTSPPGDDIKNSPGQYIQCFTVKPKLDLPPKFHRPVSEQIVSFYRVNEVQRFEYSRPIRKGEKNPDNEFANMWIERTIYTTAYKLPGILRWFEVKSVFMVEISPLENAIETMQLTNDKINSMVQQHLDDPSLPINPLSMLLNGIVDPAVMGGFANYEKAFFTDRYLQEHPEAHEKIEKLKDLIAWQIPFLAEGIRIHGDKVTEALRPFHERMEACFKQLKEKVEKEYGVRIMPSSLDDRRGSRPRSMVRSFTMPSSSRPLSVASVSSLSSDS
As for B1, the “Mant-GDP nucleotide exchange (GEF activity of DHR-2c), relative to wild-type Rac” value is < 10 % of the level of wild-type Rac.
